The stoichiometry N is a count of units in the complex or per binding partner. In general, Kd refers to the equilibrium constant for the complex coming apart.

From paper PMC3253074, “βB1-Crystallin: Thermodynamic Profiles of Molecular Interactions” (PLoS ONE, 2012) come the findings set out here.

B5: murine βB1-crystallin, wild type recombinant (natural protein, UniProt Q9WVJ5 1-250, looked up)
chain: MSQAAKASATTAVNPGPDGKGKGAPSTGPAPAPGPTPVPASVPRPAAKVGDLPPGSYRLIVFEQENFQGRRVEFSGECLNLGDRGFDRVRSLIVVSGPWVAFEQSAFRGEMFVLEKGEYPRWDTWTSSYRSDRLMSFRPIRMDSQEHKICLFEGANFKGNTMEIQEDDVPSLWVYGFCDRVGSITVSGGTWVGYQYPGYRGYQYLLEPGDFRHWNEWGAFQPQMQAVRRLRDRQWHQEGCFPVLTAEPPK
notes: βB1-crystallin, mouse, wild type recombinant; monomer printed as 28 kDa; source: E. coli, purified (ion-exchange and size-exclusion chromatography)

Data set [1] deals with B5. Description: SEC; equimolar mixture (~20 µM each) incubated 24 h, Superdex 75 HR10/30, Buffer A (50 mM Tris-HCl, 1 mM EDTA, 0.15 M NaCl, 1 mM TCEP, pH 7.5), 0.5 ml/min. The following applies: both partners purified.
Data set [2] concerns the molecule itself. Description: AUC; sedimentation equilibrium at 5°C increments over 5-30°C, 0.5 mg/ml, Buffer A pH 7.5; enthalpy from van't Hoff plots of ln(Kd/Co) against 1/T; dimer to monomers (βB1, βA3), heterotetramer to heterodimers (βB1/βA3).
Data set [3] deals with the molecule itself. The description is as above. The source holds these as a separate data set.
Data set [4] deals with the molecule itself. Kind of data set: AUC; sedimentation equilibrium of the equimolar βB1/βA3 mixture, 18,500 rpm, 10 °C, Buffer A pH 7.5, 0.5 mg/ml; heterotetramer to heterodimers.
Data set [5] concerns the molecule itself. Description: AUC; sedimentation equilibrium of the equimolar βB1/βA3 mixture, 18,500 rpm, 15 °C, Buffer A pH 7.5, 0.5 mg/ml; heterotetramer to heterodimers.
Data set [6] concerns the molecule itself. Description: AUC; sedimentation equilibrium of the equimolar βB1/βA3 mixture, 18,500 rpm, 30 °C, Buffer A pH 7.5, 0.5 mg/ml; heterotetramer to heterodimers.
Data set [7] concerns the molecule itself. Kind of data set: AUC; sedimentation equilibrium of the equimolar βB1/βA3 mixture, 18,500 rpm, 5 °C, Buffer A pH 7.5, 0.5 mg/ml; heterotetramer to heterodimers.
Data set [8] deals with the molecule itself. Kind of data set: AUC; sedimentation equilibrium of the equimolar βB1/βA3 mixture, 18,500 rpm, 25 °C, Buffer A pH 7.5, 0.5 mg/ml; heterotetramer to heterodimers.
Data set [9] deals with the molecule itself. Description: AUC; sedimentation equilibrium, 18,500 rpm, 10 °C, Buffer A (50 mM Tris-HCl, 1 mM EDTA, 0.15 M NaCl, 1 mM TCEP, pH 7.5), 0.5 mg/ml; dimer to monomers.
Data set [10] concerns the molecule itself. Kind of data set: AUC; sedimentation equilibrium, 18,500 rpm, 30 °C, Buffer A (50 mM Tris-HCl, 1 mM EDTA, 0.15 M NaCl, 1 mM TCEP, pH 7.5), 0.5 mg/ml; dimer to monomers.
Data set [11] concerns the molecule itself. Description: AUC; sedimentation equilibrium, 18,500 rpm, 5 °C, Buffer A (50 mM Tris-HCl, 1 mM EDTA, 0.15 M NaCl, 1 mM TCEP, pH 7.5), 0.5 mg/ml; dimer to monomers.
Data set [12] concerns the molecule itself. Description: AUC; sedimentation equilibrium, 18,500 rpm, 15 °C, Buffer A (50 mM Tris-HCl, 1 mM EDTA, 0.15 M NaCl, 1 mM TCEP, pH 7.5), 0.5 mg/ml; dimer to monomers.
Data set [13] concerns the molecule itself. Kind of data set: AUC; sedimentation equilibrium, 18,500 rpm, 25 °C, Buffer A (50 mM Tris-HCl, 1 mM EDTA, 0.15 M NaCl, 1 mM TCEP, pH 7.5), 0.5 mg/ml; dimer to monomers.
Data set [14] deals with the molecule itself. Description: AUC; sedimentation equilibrium, 18,500 rpm, 20 °C, Buffer A (50 mM Tris-HCl, 1 mM EDTA, 0.15 M NaCl, 1 mM TCEP, pH 7.5), 0.5 mg/ml; dimer to monomers.
Data set [15] concerns the molecule itself. Kind of data set: AUC; sedimentation equilibrium of the equimolar βB1/βA3 mixture, 18,500 rpm, 16 h, 20°C, Buffer A pH 7.5; heterotetramer to heterodimers.

B1: human βA3-crystallin, wild type recombinant (natural protein, UniProt P05813 1-215, looked up)
chain: METQAEQQELETLPTTKMAQTNPTPGSLGPWKITIYDQENFQGKRMEFTSSCPNVSERSFDNVRSLKVESGAWIGYEHTSFCGQQFILERGEYPRWDAWSGSNAYHIERLMSFRPICSANHKESKMTIFEKENFIGRQWEISDDYPSLQAMGWFNNEVGSMKIQSGAWVCYQYPGYRGYQYILECDHHGGDYKHWREWGSHAQTSQIQSIRRIQQ
notes: βA3-crystallin, human, wild type recombinant; monomer printed as 25 kDa; source: E. coli, purified (ion-exchange and size-exclusion chromatography)
With B1, the binding result in [1] is listed as “binds”. In data set [2], the “dH (van't Hoff, ΔCp = 0)” value was found to be 8 ± 3 kcal/mol and the “dH (van't Hoff, ΔCp nonzero)” value stood at 7.2 ± 2.5 kcal/mol. For the same molecule, in [3], the “stoichiometry N” value is 2.

B2: βB1/βA3 heterodimer (murine βB1 with human βA3) (complex, murine | human)
chain 1: MSQAAKASATTAVNPGPDGKGKGAPSTGPAPAPGPTPVPASVPRPAAKVGDLPPGSYRLIVFEQENFQGRRVEFSGECLNLGDRGFDRVRSLIVVSGPWVAFEQSAFRGEMFVLEKGEYPRWDTWTSSYRSDRLMSFRPIRMDSQEHKICLFEGANFKGNTMEIQEDDVPSLWVYGFCDRVGSITVSGGTWVGYQYPGYRGYQYLLEPGDFRHWNEWGAFQPQMQAVRRLRDRQWHQEGCFPVLTAEPPK
chain 2: METQAEQQELETLPTTKMAQTNPTPGSLGPWKITIYDQENFQGKRMEFTSSCPNVSERSFDNVRSLKVESGAWIGYEHTSFCGQQFILERGEYPRWDAWSGSNAYHIERLMSFRPICSANHKESKMTIFEKENFIGRQWEISDDYPSLQAMGWFNNEVGSMKIQSGAWVCYQYPGYRGYQYILECDHHGGDYKHWREWGSHAQTSQIQSIRRIQQ
notes: βB1-crystallin, mouse, wild type recombinant; as the chain of Wm1; βA3-crystallin, human, wild type recombinant; as the chain of Wm2; also called βB1/βA3 complex; source: equimolar mixture (~20 µM each) of βB1 and βA3 purified from E. coli, incubated at room temperature for 24 h
In the case of B2, the equilibrium dissociation constant (Kd) in [4] worked out at 0.54 µM; in data set [5], 1.14 µM; in data set [6], 22.1 µM; in data set [7] it was 1.21 µM; in [8], 12.8 µM.

B3: human βA3-crystallin (natural protein, UniProt P05813 1-215, looked up)
chain: METQAEQQELETLPTTKMAQTNPTPGSLGPWKITIYDQENFQGKRMEFTSSCPNVSERSFDNVRSLKVESGAWIGYEHTSFCGQQFILERGEYPRWDAWSGSNAYHIERLMSFRPICSANHKESKMTIFEKENFIGRQWEISDDYPSLQAMGWFNNEVGSMKIQSGAWVCYQYPGYRGYQYILECDHHGGDYKHWREWGSHAQTSQIQSIRRIQQ
notes: βA3-crystallin, human, wild type recombinant; monomer 25 kDa as printed; source: E. coli, purified (ion-exchange and size-exclusion chromatography)
On to B3, for which the Kd stood at 6.47 µM in data set [9]; 2.07 µM in [10]; 11.8 µM in data set [11]; 5.32 µM in data set [12]; 1.62 µM in [13]; 5.21 µM in data set [14].

B4: βB1/βA3 heterodimer (murine βB1 with human βA3), the unit of the heterodimer-heterotetramer equilibrium (complex, murine | human)
chain 1: MSQAAKASATTAVNPGPDGKGKGAPSTGPAPAPGPTPVPASVPRPAAKVGDLPPGSYRLIVFEQENFQGRRVEFSGECLNLGDRGFDRVRSLIVVSGPWVAFEQSAFRGEMFVLEKGEYPRWDTWTSSYRSDRLMSFRPIRMDSQEHKICLFEGANFKGNTMEIQEDDVPSLWVYGFCDRVGSITVSGGTWVGYQYPGYRGYQYLLEPGDFRHWNEWGAFQPQMQAVRRLRDRQWHQEGCFPVLTAEPPK
chain 2: METQAEQQELETLPTTKMAQTNPTPGSLGPWKITIYDQENFQGKRMEFTSSCPNVSERSFDNVRSLKVESGAWIGYEHTSFCGQQFILERGEYPRWDAWSGSNAYHIERLMSFRPICSANHKESKMTIFEKENFIGRQWEISDDYPSLQAMGWFNNEVGSMKIQSGAWVCYQYPGYRGYQYILECDHHGGDYKHWREWGSHAQTSQIQSIRRIQQ
notes: βB1-crystallin, mouse, wild type recombinant, as m1; βA3-crystallin, human, wild type recombinant, as m2; The heterodimer is the unit of the best-fit model; also called βB1/βA3 complex; [βB1/βA3]4 (the tetramer); source: equimolar mixture (~20 µM each) of the purified E. coli proteins, incubated 24 h
As for B4, in data set [2], the “dH (van't Hoff, ΔCp = 0)” value was -24.5 ± 6.2 kcal/mol and the “dH (van't Hoff, ΔCp nonzero)” value was -29.6 ± 8.1 kcal/mol. Also, the dissociation constant Kd in data set [15] amounted to 8.78 µM.
Regarding B5, in [2], the “dH (van't Hoff, ΔCp = 0)” value is -13.3 ± 5.6 kcal/mol and the “dH (van't Hoff, ΔCp nonzero)” value is -21.2 ± 4.6 kcal/mol. Further, the “stoichiometry N” value in data set [3] came out at 2.

B6: murine βB1-crystallin (natural protein, UniProt Q9WVJ5 1-250, looked up)
chain: MSQAAKASATTAVNPGPDGKGKGAPSTGPAPAPGPTPVPASVPRPAAKVGDLPPGSYRLIVFEQENFQGRRVEFSGECLNLGDRGFDRVRSLIVVSGPWVAFEQSAFRGEMFVLEKGEYPRWDTWTSSYRSDRLMSFRPIRMDSQEHKICLFEGANFKGNTMEIQEDDVPSLWVYGFCDRVGSITVSGGTWVGYQYPGYRGYQYLLEPGDFRHWNEWGAFQPQMQAVRRLRDRQWHQEGCFPVLTAEPPK
notes: βB1-crystallin, mouse, wild type recombinant; monomer 28 kDa as printed; source: E. coli, purified (ion-exchange and size-exclusion chromatography)
With B6, the dissociation constant (Kd) in data set [9] was determined as 1.64 µM; in data set [10] it was 17.6 µM; in data set [11] it was 3.99 µM; in [12], 1.91 µM; in [13], 12.6 µM; in [14] it was 4.71 µM.
